According to publication PMC3195437 (Biochemical Journal, 2011):

B1: rHtrASA (recombinant, N-terminally truncated, proteolytically inactive HtrA of Synechocystis sp. PCC 6803, Ser296 replaced by alanine) (enzyme, UniProt P73354 94-452, looked up)
chain: SIAPANESLATNLQSRLSPREPSNFVVDVVESTGPAVVRINAQKTVKSQVPQAFNDPFLQRFFGSQMPPMPNERVQRGTGSGFIVSNDGKIFTNAHVVDGADEVTVTLKDGRSFPGRVMGSDPSTDVAVVKIEAGDLPTVALGDSDHLQVGEWAIAIGNPLGLDNTVTTGILSATGRRSADIGVPDKRVEFIQTDAAINPGNAGGPLLNADGQVIGMNTAIIQNAQGIGFAIPINKAQEIAQQLIATGKVEHAYLGIQMVTMTPELQSQIRQETGMNIPVDKGVVIMQVMPNSPAAIAKLEQGDVLQSLQGQPVENAEQVQSLVGKLAVGDEVELGILRNGQQQNLTVTIGALPSAPPQ
B2: rHhoBSA (recombinant, N-terminally truncated, proteolytically inactive HhoB of Synechocystis sp. PCC 6803, Ser258 replaced by alanine) (enzyme, UniProt P73940 51-416, looked up)
chain: SLTPAPVESNYRSALPLTLPRSAQDDQELNFIARAVQKIGPAVVRIDSERTAVSQGGPMGDQPFFRRFFGEEMPPNPDPREQGTGSGFILSSDGEVLTNAHVVEGASTVKVTLKDGSVLEGKVMGIDTMTDVAVVKVEAENLPVVEIGQSDRLQPGEWAIAIGNPLGLDNTVTVGIISALGRSSSEVGVPDKRVRFIQTDAAINPGNAGGPLLNAKGEVIGVNTAIRADAQGLGFAIPIQTAQNVAENLFTKGKMEHPYLGIHMVTLTPEMTKQLRTSGELPAGVTADTGVLIIQVSPGSPAAQAGLAPGDIILEVGGMGVKTATDVQERVEVSQIGEPLAIAVKRGQKPQMMAVRPGPFPEDLGQ

Biological target: the molecule itself
Assay: SEC

Protein	stoichiometry N
B1	3
B2	3
